Data: publication PMC9482650, “Quantitative fragmentomics allow affinity mapping of interactomes” (Nature Communications, 2022)

Tests used:
Assay in all cases: holdup assay
Parameters in all cases: key: below the threshold = too weak to quantify, mostly under pKd 3.1 to 4
DLG3_3, Q92796 = biological target: T1, DLG3_3, Q92796
T1 sequence (Q92796 374-475, limits assumed, looked up): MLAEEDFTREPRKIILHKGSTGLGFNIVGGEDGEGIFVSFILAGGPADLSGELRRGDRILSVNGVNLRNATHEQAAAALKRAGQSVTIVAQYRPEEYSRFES

NHERF3_1, Q5T2W1 = biological target: T2, NHERF3_1, Q5T2W1
T2 sequence (Q5T2W1 4-100, limits assumed, looked up): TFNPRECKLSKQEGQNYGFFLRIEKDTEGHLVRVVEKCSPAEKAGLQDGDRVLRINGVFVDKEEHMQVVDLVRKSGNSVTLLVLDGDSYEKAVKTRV

LNX2_3, Q8N448 = biological target: T3, LNX2_3, Q8N448
T3 sequence (Q8N448 463-564, limits assumed, looked up): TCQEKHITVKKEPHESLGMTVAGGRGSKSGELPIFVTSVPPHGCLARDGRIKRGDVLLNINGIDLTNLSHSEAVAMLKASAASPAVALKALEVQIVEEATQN

FRMPD2_2, Q68DX3 = biological target: FRMPD2_2, Q68DX3
Chain of FRMPD2_2, Q68DX3 (Q68DX3 944-1038): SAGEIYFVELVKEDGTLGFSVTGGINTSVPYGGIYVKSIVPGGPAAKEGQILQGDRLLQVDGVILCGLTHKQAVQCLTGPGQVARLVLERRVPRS

MAST2, Q6P0Q8 = biological target: MAST2, Q6P0Q8
Chain of MAST2, Q6P0Q8 (Q6P0Q8 1099-1202): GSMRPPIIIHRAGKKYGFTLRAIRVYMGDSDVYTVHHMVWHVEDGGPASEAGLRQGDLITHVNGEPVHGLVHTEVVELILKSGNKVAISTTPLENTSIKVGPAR

SCRIB_1, Q14160 = biological target: SCRIB_1, Q14160
Chain of SCRIB_1, Q14160 (Q14160 718-814): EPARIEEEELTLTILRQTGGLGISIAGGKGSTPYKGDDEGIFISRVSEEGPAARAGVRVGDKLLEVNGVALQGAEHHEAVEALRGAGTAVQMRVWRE

RHPN1, Q8TCX5 = biological target: T4, RHPN1, Q8TCX5
T4 sequence (Q8TCX5 508-602, limits assumed, looked up): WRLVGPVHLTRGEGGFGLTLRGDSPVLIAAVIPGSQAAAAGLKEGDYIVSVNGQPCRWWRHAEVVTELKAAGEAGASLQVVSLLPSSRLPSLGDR

DLG4_3, P78352 = biological target: DLG4_3, P78352
Chain of DLG4_3, P78352 (P78352 306-403): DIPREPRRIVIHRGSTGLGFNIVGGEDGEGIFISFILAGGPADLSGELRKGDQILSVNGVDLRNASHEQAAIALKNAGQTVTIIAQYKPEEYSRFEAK

LNX1_2, Q8TBB1 = biological target: LNX1_2, Q8TBB1
Chain of LNX1_2, Q8TBB1 (Q8TBB1 371-470): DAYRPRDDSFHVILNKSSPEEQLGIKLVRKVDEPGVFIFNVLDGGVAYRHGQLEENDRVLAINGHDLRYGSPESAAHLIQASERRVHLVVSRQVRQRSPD

APBA3_1, O96018 = biological target: T5, APBA3_1, O96018
T5 sequence (O96018 389-490, limits assumed, looked up): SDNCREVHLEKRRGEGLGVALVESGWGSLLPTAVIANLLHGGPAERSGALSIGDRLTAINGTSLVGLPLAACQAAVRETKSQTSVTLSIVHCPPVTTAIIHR

NHERF3_4, Q5T2W1 = biological target: T6, NHERF3_4, Q5T2W1
T6 sequence (Q5T2W1 373-468, limits assumed, looked up): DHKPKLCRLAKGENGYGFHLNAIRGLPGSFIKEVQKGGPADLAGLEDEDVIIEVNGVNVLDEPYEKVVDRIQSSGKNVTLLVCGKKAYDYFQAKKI

DLG4_2, P78352 = biological target: DLG4_2, P78352
Chain of DLG4_2, P78352 (P78352 155-259): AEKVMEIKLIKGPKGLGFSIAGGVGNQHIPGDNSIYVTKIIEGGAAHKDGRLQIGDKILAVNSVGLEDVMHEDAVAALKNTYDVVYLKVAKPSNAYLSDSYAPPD

SNX27, Q96L92 = biological target: SNX27, Q96L92
GRIP2_6, Q9C0E4 = biological target: GRIP2_6, Q9C0E4
Chain of GRIP2_6, Q9C0E4 (Q9C0E4 648-740): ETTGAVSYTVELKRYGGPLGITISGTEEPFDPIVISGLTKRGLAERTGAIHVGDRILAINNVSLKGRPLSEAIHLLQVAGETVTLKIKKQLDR

GRIP2_3, Q9C0E4 = biological target: GRIP2_3, Q9C0E4
Chain of GRIP2_3, Q9C0E4 (Q9C0E4 238-339): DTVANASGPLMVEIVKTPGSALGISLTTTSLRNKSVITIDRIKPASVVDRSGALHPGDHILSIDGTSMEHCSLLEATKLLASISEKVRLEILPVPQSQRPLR

SYNJ2BP, P57105 = biological target: T7, SYNJ2BP, P57105
T7 sequence (P57105 8-110, limits assumed, looked up): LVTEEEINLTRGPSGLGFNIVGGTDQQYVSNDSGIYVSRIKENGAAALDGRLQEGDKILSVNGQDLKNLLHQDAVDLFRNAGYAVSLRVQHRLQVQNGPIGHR

DLG4_1, P78352 = biological target: DLG4_1, P78352
Chain of DLG4_1, P78352 (P78352 62-152): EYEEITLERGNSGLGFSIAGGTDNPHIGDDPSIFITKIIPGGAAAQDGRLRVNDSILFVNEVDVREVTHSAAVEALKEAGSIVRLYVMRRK

GIPC2, Q8TF65 = biological target: GIPC2, Q8TF65
Chain of GIPC2, Q8TF65 (Q8TF65 112-203): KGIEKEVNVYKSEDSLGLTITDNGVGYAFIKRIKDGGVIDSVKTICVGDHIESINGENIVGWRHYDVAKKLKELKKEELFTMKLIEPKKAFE

FRMPD4, Q14CM0 = biological target: FRMPD4, Q14CM0
Chain of FRMPD4, Q14CM0 (Q14CM0 67-160): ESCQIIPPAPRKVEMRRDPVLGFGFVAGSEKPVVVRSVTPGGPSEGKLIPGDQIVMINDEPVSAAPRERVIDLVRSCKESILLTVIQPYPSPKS

DFNB31_2, Q9P202 = biological target: T8, DFNB31_2, Q9P202
T8 sequence (Q9P202 274-371, limits assumed, looked up): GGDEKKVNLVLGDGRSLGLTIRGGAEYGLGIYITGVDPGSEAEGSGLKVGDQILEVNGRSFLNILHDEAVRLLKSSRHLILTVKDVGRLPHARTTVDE

NHERF4_4, Q86UT5 = biological target: NHERF4_4, Q86UT5
Chain of NHERF4_4, Q86UT5 (Q86UT5 464-550): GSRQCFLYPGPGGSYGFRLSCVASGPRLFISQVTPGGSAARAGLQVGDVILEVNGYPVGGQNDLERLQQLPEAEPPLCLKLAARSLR

ARHGAP21, Q5T5U3 = biological target: T9, ARHGAP21, Q5T5U3
T9 sequence (Q5T5U3 45-169, limits assumed, looked up): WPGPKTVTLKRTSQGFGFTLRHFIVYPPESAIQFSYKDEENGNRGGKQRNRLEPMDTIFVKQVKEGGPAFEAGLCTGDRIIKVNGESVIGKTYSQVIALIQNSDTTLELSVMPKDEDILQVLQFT

DLG1_2, Q12959 = biological target: DLG1_2, Q12959
Chain of DLG1_2, Q12959 (Q12959 314-412): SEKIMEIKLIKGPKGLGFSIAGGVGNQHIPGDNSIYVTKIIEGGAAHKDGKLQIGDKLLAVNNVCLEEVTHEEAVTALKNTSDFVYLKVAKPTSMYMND

DLG5_1, Q8TDM6 = biological target: DLG5_1, Q8TDM6
Chain of DLG5_1, Q8TDM6 (Q8TDM6 617-713): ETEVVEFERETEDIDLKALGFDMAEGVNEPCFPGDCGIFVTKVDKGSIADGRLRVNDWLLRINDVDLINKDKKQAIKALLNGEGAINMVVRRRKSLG

LRRC7, Q96NW7 = biological target: T10, LRRC7, Q96NW7
T10 sequence (Q96NW7 1440-1537, limits assumed, looked up): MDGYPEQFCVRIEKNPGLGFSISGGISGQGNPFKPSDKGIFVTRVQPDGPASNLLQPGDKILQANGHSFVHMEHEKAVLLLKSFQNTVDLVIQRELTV

MAGI3_2, Q5TCQ9 = biological target: MAGI3_2, Q5TCQ9
Chain of MAGI3_2, Q5TCQ9 (Q5TCQ9 398-503): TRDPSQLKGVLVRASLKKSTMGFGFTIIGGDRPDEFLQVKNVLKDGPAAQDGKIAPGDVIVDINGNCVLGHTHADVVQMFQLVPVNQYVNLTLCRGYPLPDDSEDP

GORASP2, Q9H8Y8 = biological target: GORASP2, Q9H8Y8
[1] = plain residues with an end cap or a label only (N-terminal biotin on a linker: ttds)
[2] = plain residues with an end cap or a label only (N-terminal biotin on a linker: ahx)

Binder: FVETQHQTQV [FAT3, Q8TDW7]
- pKd (DLG3_3, Q92796; [1]): 3.58
- pKd (NHERF3_1, Q5T2W1; [1]): 4.72
- pKd (LNX2_3, Q8N448; [1]): below the threshold
- pKd (FRMPD2_2, Q68DX3; [1]): 3.97
- pKd (MAST2, Q6P0Q8; [1]): 5.39
- pKd (SCRIB_1, Q14160; [1]): below the threshold
- pKd (RHPN1, Q8TCX5; [1]): 4.32
- pKd (DLG4_3, P78352; [1]): below the threshold
- pKd (LNX1_2, Q8TBB1; [1]): below the threshold
- pKd (APBA3_1, O96018; [1]): below the threshold
- pKd (NHERF3_4, Q5T2W1; [1]): below the threshold
- pKd (DLG4_2, P78352; [1]): 4.57
- pKd (SNX27, Q96L92; [1]): 4.53
- pKd (GRIP2_6, Q9C0E4; [1]): below the threshold
- pKd (GRIP2_3, Q9C0E4; [1]): below the threshold
- pKd (SYNJ2BP, P57105; [1]): 4.08
- pKd (DLG4_1, P78352; [1]): 4.36
- pKd (GIPC2, Q8TF65; [1]): 3.66
- pKd (FRMPD4, Q14CM0; [1]): below the threshold
- pKd (DFNB31_2, Q9P202; [1]): below the threshold
- pKd (NHERF4_4, Q86UT5; [1]): below the threshold
- pKd (ARHGAP21, Q5T5U3; [1]): below the threshold
- pKd (DLG1_2, Q12959; [1]): 4.95
- pKd (DLG5_1, Q8TDM6; [1]): below the threshold
- pKd (LRRC7, Q96NW7; [1]): below the threshold
- pKd (MAGI3_2, Q5TCQ9; [1]): 4.57
- pKd (GORASP2, Q9H8Y8; [1]): below the threshold

Binder: SGGKRKETLV [NET1, Q7Z628]
- pKd (DLG3_3, Q92796; [1]): 5.05
- pKd (NHERF3_1, Q5T2W1; [1]): 4.35
- pKd (LNX2_3, Q8N448; [1]): below the threshold
- pKd (FRMPD2_2, Q68DX3; [1]): 3.67
- pKd (MAST2, Q6P0Q8; [1]): 4.49
- pKd (SCRIB_1, Q14160; [1]): 4
- pKd (RHPN1, Q8TCX5; [1]): 3.65
- pKd (DLG4_3, P78352; [1]): 4.92
- pKd (LNX1_2, Q8TBB1; [1]): 3.62
- pKd (APBA3_1, O96018; [1]): below the threshold
- pKd (NHERF3_4, Q5T2W1; [1]): below the threshold
- pKd (DLG4_2, P78352; [1]): 5.77
- pKd (SNX27, Q96L92; [1]): 4.33
- pKd (GRIP2_6, Q9C0E4; [1]): below the threshold
- pKd (GRIP2_3, Q9C0E4; [1]): below the threshold
- pKd (SYNJ2BP, P57105; [1]): 5.2
- pKd (DLG4_1, P78352; [1]): 5.21
- pKd (GIPC2, Q8TF65; [1]): below the threshold
- pKd (FRMPD4, Q14CM0; [1]): 3.65
- pKd (DFNB31_2, Q9P202; [1]): below the threshold
- pKd (NHERF4_4, Q86UT5; [1]): below the threshold
- pKd (ARHGAP21, Q5T5U3; [1]): below the threshold
- pKd (DLG1_2, Q12959; [1]): 5.78
- pKd (DLG5_1, Q8TDM6; [1]): below the threshold
- pKd (LRRC7, Q96NW7; [1]): below the threshold
- pKd (MAGI3_2, Q5TCQ9; [1]): 5.92
- pKd (GORASP2, Q9H8Y8; [1]): 4.03

Binder: SAPATLSSRA [PDLIM2, Q96JY6]
- pKd (DLG3_3, Q92796; [2]): below the threshold
- pKd (NHERF3_1, Q5T2W1; [2]): below the threshold
- pKd (LNX2_3, Q8N448; [2]): below the threshold
- pKd (FRMPD2_2, Q68DX3; [2]): below the threshold
- pKd (MAST2, Q6P0Q8; [2]): below the threshold
- pKd (SCRIB_1, Q14160; [2]): below the threshold
- pKd (RHPN1, Q8TCX5; [2]): below the threshold
- pKd (DLG4_3, P78352; [2]): below the threshold
- pKd (LNX1_2, Q8TBB1; [2]): below the threshold
- pKd (APBA3_1, O96018; [2]): below the threshold
- pKd (NHERF3_4, Q5T2W1; [2]): below the threshold
- pKd (DLG4_2, P78352; [2]): below the threshold
- pKd (SNX27, Q96L92; [2]): below the threshold
- pKd (GRIP2_6, Q9C0E4; [2]): below the threshold
- pKd (GRIP2_3, Q9C0E4; [2]): below the threshold
- pKd (SYNJ2BP, P57105; [2]): below the threshold
- pKd (DLG4_1, P78352; [2]): below the threshold
- pKd (GIPC2, Q8TF65; [2]): below the threshold
- pKd (FRMPD4, Q14CM0; [2]): below the threshold
- pKd (DFNB31_2, Q9P202; [2]): below the threshold
- pKd (NHERF4_4, Q86UT5; [2]): below the threshold
- pKd (ARHGAP21, Q5T5U3; [2]): below the threshold
- pKd (DLG1_2, Q12959; [2]): below the threshold
- pKd (DLG5_1, Q8TDM6; [2]): below the threshold
- pKd (LRRC7, Q96NW7; [2]): below the threshold
- pKd (MAGI3_2, Q5TCQ9; [2]): below the threshold
- pKd (GORASP2, Q9H8Y8; [2]): below the threshold
